Experiment [1] has as its target human CCR8 (human) (UniProt P51685). Description: cell-based or functional assay.
The target is the same in experiment [2]. The experiment is described as follows: flow cytometry on 293F-hCCR8 cells.
Experiment [3] has the same target. The experiment is described as follows: flow cytometry on 293F-hCCR8 cells. This is another data set of the same source.
For experiment [4] the target is unchanged. The experiment is described as follows: flow cytometry on 293F-hCCR8 cells. This is another data set of the same source.
Experiment [5] has the same target. The experiment is described as follows: flow cytometry on CHOK1-hCCR8 cells.
Experiment [6] deals with cynomolgus CCR8 (cynomolgus monkey). The experiment is described as follows: flow cytometry on 293T-cynoCCR8 cells.
Experiment [7] has the same target. Description: flow cytometry on 293T-cynoCCR8 cells. This is another data set of the same source.
The target of experiment [8] is human CCR8 (human) (UniProt P51685). The experiment is described as follows: flow cytometry on HuT78 cells (endogenous CCR8).
Chain of human CCR8 (human) (P51685 whole entry): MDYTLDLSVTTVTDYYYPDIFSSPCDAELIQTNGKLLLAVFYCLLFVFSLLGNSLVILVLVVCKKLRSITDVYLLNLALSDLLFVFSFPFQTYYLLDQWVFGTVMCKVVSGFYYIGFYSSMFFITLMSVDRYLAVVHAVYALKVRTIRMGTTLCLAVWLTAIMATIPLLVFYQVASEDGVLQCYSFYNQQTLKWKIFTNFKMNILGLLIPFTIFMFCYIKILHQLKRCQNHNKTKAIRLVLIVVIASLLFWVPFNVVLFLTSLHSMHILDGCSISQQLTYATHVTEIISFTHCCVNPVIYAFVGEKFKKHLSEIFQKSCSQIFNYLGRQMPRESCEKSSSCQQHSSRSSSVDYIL
The target is the same in experiment [9]. The experiment is described as follows: flow cytometry, competition with 10 nM AF647-human CCL1 on 293F-hCCR8 cells.
Experiment [10] has the same target. Described as above. This is another data set of the same source.
Experiment [11] has the same target. Described as above. This is another data set of the same source.

Where two headings read alike, the source gives them in different places.

B1: 559E1B10_hzH0L0_hIgG1 (antibody, V domains shown)
VH: QVQLVQSGAEVKKPGASVKVSCKASGYTFTDYYVNWVRQAPGQGLEWMGVINPHNGDTRYNQKFKGRVTMTRDTSTSTVYMELSSLRSEDTAVYYCASWLRRGYYFDSWGQGTTVTVSS
VL: EIVLTQSPATLSLSPGERATLSCRASQSISDYLHWYQQKPGQAPRLLIYYVSQSISGIPARFSGSGSGTDFTLTISSLEPEDFAVYYCQNGHSFPLTFGGGTKVEIKR
For the molecule B1, in the experiment with human CCR8 (human) [1], the EC50 of activation of Jurkat-human FcγRIIIa(158V)-NFAT with 293F-hCCR8 target cells turned out to be 854 ng/mL.

B2: 559E1B10_hzH1L0_hIgG1 (antibody, V domains shown)
VH: QVQLVQSGAEVKKPGASVKVSCKASGYTFTDYYVNWVRQAPGQGLEWMGVINPHNGDTRYNQKFKGRVTMTVDKSTSTVYMELSSLRSEDTAVYYCASWLRRGYYFDSWGQGTTVTVSS
VL: EIVLTQSPATLSLSPGERATLSCRASQSISDYLHWYQQKPGQAPRLLIYYVSQSISGIPARFSGSGSGTDFTLTISSLEPEDFAVYYCQNGHSFPLTFGGGTKVEIKR
In the experiment with human CCR8 (human) [1], B2 registered an EC50 of activation of Jurkat-human FcγRIIIa(158V)-NFAT with 293F-hCCR8 target cells of 1690 ng/mL.

B3: 559E1B10_hzH2L0_hIgG1 (antibody, V domains shown)
VH: QVQLVQSGAEVKKPGASVKVSCKASGYTFTDYYVNWVRQAPGQGLEWIGVINPHNGDTRYNQKFKGRATLTVDKSTSTVYMELSSLRSEDTAVYYCASWLRRGYYFDSWGQGTTVTVSS
VL: EIVLTQSPATLSLSPGERATLSCRASQSISDYLHWYQQKPGQAPRLLIYYVSQSISGIPARFSGSGSGTDFTLTISSLEPEDFAVYYCQNGHSFPLTFGGGTKVEIKR
As for B3, in the experiment with human CCR8 (human) [1], the EC50 of activation of Jurkat-human FcγRIIIa(158V)-NFAT with 293F-hCCR8 target cells turned out to be 706 ng/mL.

B4: anti-human CCR8 433H (antibody, from another filing, V domains shown)
VH: EVQLVETGGGLVQPKGSLRLSCAASGFPFNTFAMNWVRQAPGKGLEWLARIRSKSNNYATYYADSVKDRFTISRDDSRRMLYLLMNNVKFEDTAIYYCVRGKENNYGYAMDYWGQGTSVTVSS
VL: DIVMTQAAPSVPVTPGESVSISCRSSQSLLHSNGNTYLYWFLQRPGQSPQLLIYRMSNLASGVPDRFSGSGSGTAFTLRISRVEAEDVGVYYCMQHLEYPFTFGIGTKLELKR
B4 yielded an IC50 of blockade of CCL1-induced β-arrestin recruitment with human CCR8 (human) [1] of 2360 ng/mL. For the same molecule, the IC50 of blockade of CCL1-induced β-arrestin recruitment (Tango-H CCR8-CHO-K1 cells) in the experiment with human CCR8 (human) [1] is 1290 ng/mL. Besides, the EC50 with human CCR8 (human) [2] came out at 0.206 µg/mL; in the experiment with human CCR8 (human) [3] it was 0.153 µg/mL; with human CCR8 (human) [4], 0.156 µg/mL; in the experiment with human CCR8 (human) [5] it was 0.0788 µg/mL; in [6] it was 15.3 µg/mL; in experiment [7] it was 14.6 µg/mL. The same molecule came in with an EC50 in the experiment with human CCR8 (human) [8] of 0.0763 µg/mL. Further, the IC50 with human CCR8 (human) [9] was 0.0943 µg/mL; with human CCR8 (human) [10], 0.0705 µg/mL; in the experiment with human CCR8 (human) [11], 0.0965 µg/mL.

B5: B16_hIgG1 (antibody, from another filing, V domains shown)
VH: EVQLVESGGGLVQPGGSLKLSCAASGFTFNTYAMNWVRQASGKGLEWVGRIRSKSNNYATYYADSVKDRFTISRDDSKNTAYLQMNSLKTEDTAVYYCVRGLLRYRFFDVWGQGTTVTVSS
VL: DIVMTQSPLSLPVTPGEPASISCRSSKSLLHSNGNTYLYWFLQKPGQSPQLLIYRMSNLASGVPDRFSGSGSGTDFTLKISRVEAEDVGVYYCMQHLEYPFTFGGGTKVEIKR
On to B5, for which, in the experiment with human CCR8 (human) [1], the EC50 of ADCC effect (lysis%) by human PBMCs on CHOK1-hCCR8 cells stood at 2.38 ng/mL, the EC50 of activation of Jurkat-human FcγRIIIa(158V)-NFAT with 293F-hCCR8 target cells came to 13.1 ng/mL and the EC50 of activation of Jurkat-human FcγRIIIa(158V)-NFAT with CHOK1-hCCR8 target cells came out at 26.5 ng/mL. In the experiment with human CCR8 (human) [5], the 50% effective concentration (EC50) was 0.0356 µg/mL. The EC50 with human CCR8 (human) [8] is 0.0364 µg/mL.

B6: 4A19_hIgG1 (antibody, from another filing, V domains shown)
VH: QVQLVQSGAEVKKPGASVKVSCKASGYTFTDSEMHWVRQATGQGLEWMGAIQPETGGTAYNQKFKARVTMTRDTSISTAYMELSSLRSEDTAVYYCARRRRNFDYWGQGTLVTVSS
VL: DIVMTQTPLSLSVTPGQPASISCRSSQSLFHSSGNTYLHWYLQKPGQPPQLLIYKVSNRFSGVPDRFSGSGSGTDFTLKISRVEAEDVGVYYCSQSTHVPFTFGQGTKLEIKR
On to B6, for which the EC50 of activation of Jurkat-human FcγRIIIa(158V)-NFAT with CHOK1-hCCR8 target cells with human CCR8 (human) [1] is 14.1 ng/mL.

Values taken from EP4624492A1.
